In patent US20230226096A1 (Orna Therapeutics, Inc., priority 2020, published 2023):

B1: Wobbly possum disease virus (nucleic acid)
DNA: CGGCTGTGAGTGCTTAGCATATGCTAGAGTACTACAGCCGGGTGTTGGAGTCATATGCACTGGTTGCCTGTATAATAGTCGGGATCTGTCTGACCTACATTATCTTTGGGAGTTGCTTATCACGACAATTCTCGAAGTGTCTGTCGACAGCTTACCCCCGATTCGACAAGGCCCCTTGTCCACCGCAGACCTATCGATTTTCAACGAGAACACTATCAGAGGTTTAAATTTAAAACTCACCAACA
B2: Picornavirales Tottori-HG1 (nucleic acid)
DNA: AGCCATGAACTAGTGTGCGATTCCCACAGTGTTGGTCGAAAGCCCCGCACTGTCTACTCGCATATTTGACTCCAGTCCTTCCGCAGCCAGCGGTTAGGTTCTGGTTAAAGTGCATTATGTGCACGGCGCCACGCAGAACTGCCAGAAATGGTAAGCTGCGCCCAACGCCAACGGTTTGTGTATCCCGTTAGTCACACGTTTACAGCTGTTCGTTAACAGTAGGGTTTTGTCGACCCGGACCCCTTAATGCGCGCGAATTCAACCGCGCCTAGTCGGCAATGGTATCATTTAATCCCATGCACTACGGGAGAAATTTGAGACCAAAGAATTCCTGAGGGCCACTGCTTGCTCTAAGTGCAATGCCTCGGGAGACTTCTGTCAGGAGCCTAGCGGCTTTCAACCGCGACAGCTAACTCCTGCGGGATGTTTGGTGTCCATACTTACTGGCGTCCTCACAACGCTAAGTGGATGTTGTCCACAGGTAGGCAAACACCGAGCCCCACATTCAGGAGACCTGTATGAACGATCCTATCAGCATTAGAGTTGGAATTGGGTGTGCTAACGTCCGCATAAGTGCACCCCGTGGTAACGCTGGGAAACTATCCAGCGCAACGTACTGTCCTCAATGTCTAGGGAAGGACCGCCCTAAGCGTACAACCGGGCCATGTGTCGAGC
B3: Sclerotinia sclerotiorum dsRNA mycovirus-L (nucleic acid)
DNA: TTGAATTAATCTTTTACGTTTACGCGCATAAAATCAGGACACATCTCTTGTATACTTTAGTATATCAATGATGTTTTTGTTTTATGCGATTAATCGTAAGAGAACTTCTTTCCATCCGCCTGTATGGGCGGGATAATAAGTTCACCGCCTTGGTCGAGGCGCAAACTTGTATGTGCAAAGGTGAGCTATATGCTCGAAATAGTCGTAACTAACACACAGCCACTACCTGTAGAGCTCTATTGATCCGGAATCCTTTAGTGGGAATGCAGAGCTCACACCGGACCTGCGGGTATCTTCGGCGTTAGGGACTTCTGTTTCAGCCTTGAATCATTTACCTTTATACCTTCTCTGAGGCGCCTGGGCCGGGCGCGATATTAAGTACAAGTCAAGGACATCGCGGGTAGTGGTCTAATCAGCCGCTAGTCCTGCTGGAGAGTTCCAACTTAGTTGGGTGTGGTGCATACTAGCTGGATAGAGTAGGTATGTATTGCTAACGTATGCCGGAGGCTATCCGTCCTCGGTAGAACGTGCCGAGGAGTAGTCTCTGCAGACCCCCGAACGCGTGGGGTCTTTACTTAAATGTAGGCGGAGGGAGCGCTCGTAGGTGGAACGACTGCCTCCCAGTCGAATGCAAGATTTTGCACGCGGACCAGTCTGCCCGGCAATTCCCGGGTG
B4: Livupivirus (nucleic acid, listed as Livupivirus sp.)
DNA: TATCTACATGGGGATCCAGGCTGTATGGAATGTCTGTCTTAACAAGCACTATACCAGAAAGATCCACCCAAAGTGGTGGGACTGGGACTGTGAGGTGAGAAATCCCGAAACCAGCCTTCTCAAGCGTCGGACGATCTTTCTGTTTTAGTGAACACCTTGCCTTTTAAATGGATGACAACACCCCTTCAGCAAATCGCAATCTGAAATCCCAAAAGACTGTTTAGCCGAACTCTGGTAATCACTCCGGAGAAGTAGGATACGCAGCCCCTGTGGACTCTTGATTTCAGGACTCAAGGTAGCTAGAGCTGGAACTTCATGGAATGACAAAGGAATATATGCACATTGTGCGCTTTCCTGGCCTTGTAGCCCGTCGTGAGGATATGTCGTTGGGAATCGACATCTTAGTCCAGTACTGCTTGATAGAGTGTCGGCTGGCACAGTTACCTGAGAATAAGTCAGTTGTACTTAACATGAACAAAAAAAATAACTACCACAACTACCACAATCTACCAATACTTGAATTATGCTGAATCTCGTACAGTAAAAACGTTCCGTGGAAGGACAAGTATTGAAGTGCGGTTACATCATCCGATACGCGCTGGATCCCTCA
B5: Seneca valley virus (nucleic acid)
DNA: TTTGAAATGGGGGGCTGGGCCCTGATGCCCAGTCCTTCCTTTCCCCTTCCGGGGGGTTAACCGGCTGTGTTTGCTAGAGGCACAGAGGGGCAACATCCAACCTGCTTTTGCGGGGAACGGTGCGGCTCCGATTCCTGCGTCGCCAAAGGTGTTAGCGCACCCAAACGGCGCACCTACCAATGTTATTGGTGTGGTCTGCGAGTTCTAGCCTACTCGTTTCTCCCCCGACCATTCACTCACCCACGAAAAGTGTGTTGTAACCATAAGATTTAACCCCCGCACGGGATGTGCGATAACCGTAAGACTGGCTCAAGCGCGGAAAGCGCTGTAACCACATGCTGTTAGTCCCTTTATGGCTGCAAGATGGCTACCCACCTCGGATCACTGAACTGGAGCTCGACCCTCCTTAGTAAGGGAACCGAGAGGCCTTCGTGCAACAAGCTCCGACACAGAGTCCACGTGACTGCTACCACCATGAGTACATGGTTCTCCCCTCTCGACCCAGGACTTCTTTTTGAATATCCACGGCTCGATCCAGAGGGTGGGGCATGACCCCTAGCATAGCGAGCTACAGCGGGAACTGTAGCTAGGCCTTAGCGTGCCTTGGATACTGCCTGATAGGGCGACGGCCTAGTCGTGTCGGTTCTATAGGTAGCACATACAAAT
B6: Rodent hepatovirus (nucleic acid, listed as Hepatovirus sp.)
DNA: TTCAAAGAGGGGTCCGGGATTTTCCTGGTCCCCCTCTTTGGGCACCCTTGGCTCGGGGGTGTGAATACCGTGCTCGCGTTTGCCGTGCGTTAACGGCTTCATTTATGTTTGTTTGTCTGTTTTATTATGTTGGTTTGTCTGTTTGTTATGTTGGTATTGTTCGTGTTTAATGTTATGACCACATTACACTCCAGCCAATGAAGAACAGATGGTGCGGTTATTGCTGGCGGAATTCCTAACGTCCTGGATCCGTTGGTACGCATCACAAAACAATTTGCAGAGAGAGTGGTGAAACGGCTTGGGAATCCCTGAGTACAGGGAAATCACACTGATAGCTCATCTTGGCTGTTTTCAGTCATGGACCTTATGCAGTGTAATTTGGGTGTACCCCCCATAGCTTAGGAGGAATGTTCTGTCTTGGCACTAGAGTGGGACGCTGATGCCTCCGTGTCTAGGATGGTCTAAGGGACAGAATGGGGTGCCTCTGATGCCATACTACCTGATAGGGTGCTCTCACGGCCTCTGCATCTTAGTGAGAAGTTCAATTTT
B7: Rabovirus A (nucleic acid)
DNA: CTACGGATATTTGCATGACCCGCTTTCTATCGCCCCAACAATCCCCTTTGTAACCACAAGCTTTACTCAGGCTAGCAGCCCGACTAGCTGTTTGGAAGAAAAGGCTAGGGCACACACCAACAACACCGACCCCACTGGTCGAAGGCCGCTTGGCAATAAGACTGGTGGAACAGGGTCGCCTGTAGTTGTTTGGAACATTCTTTCTAATGACTTTGTCAGCGGTGCTACTCACACCGTAACTCTTCTACCCTATCCCCACGCTTGTGGAACTAGGAGGGGATGAGTGATTCAAGTAAGTACTGTCAGAATGGTGAAAATGATCTGATTCTGAAACGCTATGGATCCATCGAAAGATGGGGCTACACGCCTGCGGAACAACACATGGTAACATGTGCCCCAGGGGCCGAAAGCCACGGTGATAGGATCACCCGTGTAGTTTGAGATCATATCAATGTTCATAGTCTAGTAAGATGATTTGAAATCTAACTGAGCTGATGGCTAACTGCTTGTCTTATTGCGGCCTAAGGATGTCCTGCAGGTACCTTTAGATAACCTTAAGAGACTATTGATCTGAGCAGGAGCCAAAGTGGTCTTTCCCAGCTTTGGTTAAAAAACGTCTAAGCCGCGGCAGGGGGCGGGAGGCCCCCTTTCCTCCCAAAACTTAATATTGATTGT
modifications: Rabovirus A
B8: Yak enterovirus (nucleic acid, listed as Enterovirus sp.)
DNA: CTCCGGCACAGCCGCACCAGTGCACTGGTACGCTAGTACCTTTTCACGGGGTAGTCGGTATCCCCCCCCGTAACTTAGAAGCATGTAACAAACCGACCAATAGGTGCGCGGCAGCCAGCTGCGTTGCGGTCAAGCACTTCTGTCTCCCCGGTCCGCAAGGATCGTTACCCGCCCACTCCACTACGAGGAGCCTAGTAACTGGCCAAGTGATTGCGGAGTTGCGTTCAGCCACAACCCCAGTGGTAGCTCTGGAAGATGGGGCTCGCACATCCCCCGTGGTAACACGGTTGCTTGCCCGCGTGTGCTTCCGGGTTCAGTCTCCGACTGTTCACTTCAACATCACGCAACCAGCCAAGAGCCGATTGTGCTGGAGTGGTCTTCCTCCGGGGCCGTGAATGCTGCTAATCCTAACCTCCGAGCGTGTGCGCACAATCCAGTGTTGCTACGTCGTAACGCGTAAGTTGGAGGCGGAACAGACTACTTTCGGCACCCCGTGTTTCCTTTATTTTATTCTTATTTTATGGTGACAATTGCAGAGATTTGTGATATTGCGACTTTACCGTTAAACATAGCACTGCATTACCTGGTTGCATTCCACAAAACTTCAGAGATTCCTAGTTCCTACATTGACCTACTTGTTTATTTGAATCTTAAATACAAACTTGAGCAAGTGAA
B9: Shingleback nidovirus 1 (nucleic acid)
DNA: CTGTGAGTACCGACAGGCTCGAAGTCTATTATGAGGCGTCGAAACAGAAAACCTGTAACAACTCCGGTTTCATCTATCACTGCCGTCAAGAGGCAGAAGAGGACGACCACGTGTCACCAGATCACTTGTATCTGTTTCAGTCAGGAAGTCAACTTTTCGACGAAGTTCGACCATTCATCGACCCGCTGAAAAGCGTAGAAGTCGATGAAGATGAGCTCCAAAGAGCCATCGCCGATTTCGACAACCAAAGTGACTGTTTCCACTCCTTCGAGCTCGTGAATTTCGAGCTGAAACAACAAATCAACGAGAACGAGTGGTACGGTTATTATAATTACGACAACCAAAACTGCAAAGTTCAGTTGCCAGTCACATGTCGAATCGAGGACGTAACCTGGGATCAGGTTTACGTG
modifications: Shingleback nidovirus 1

The molecules below were run on HEK293 cells. Settings: luminescence from secreted Gluc in supernatant 24 hours after transfection of HEK293 cells; circular RNA encoding Gluc with the named IRES (UTR truncated to 675 nt).
Assay type: cell-based, human
For B1, the Expression was 2.60E+05. For B2, the Expression was 9.54E+04. Work on B3 yielded an Expression of 1.69E+05. For B4, the Expression was 2.10E+05. In the case of B5, the Expression is reported as 1.46E+07. With B6 the Expression was 1.39E+05. In the case of B7, the Expression is reported as 2.88E+06. B8 gave an Expression of 6.19E+06. B9 showed an Expression of 2.62E+05.
